Assay [1] deals with T1, human 4-1BB (tumor necrosis factor receptor superfamily member 9) (human, UniProt Q07011 24-255).
T1 construct: whole, on cells; also called hu 4-1BB; CD137
The experiment in a line: flow cytometry (FACS) on CHO-K1/hu 4-1BB cells.

Assay [2] addresses T2, cynomolgus monkey 4-1BB (cynomolgus monkey).
T2 construct: whole, on cells; also called cyno 4-1BB
Briefly: flow cytometry (FACS) on CHO-K1/cyno 4-1BB cells, Experiment 1. In general terms: Flow cytometry measures light scatter and fluorescence of single cells or particles in a stream.

Assay [3] deals with T3, human PD-L1 (programmed death ligand 1) (human, UniProt Q9NZQ7 19-290).
T3 construct: whole, on cells; also called hPDL1; CD274
The experiment in a line: flow cytometry (FACS) on CHO-K1/hPDL1 cells, Experiment 1.

The target of assay [4] is T1, human 4-1BB (tumor necrosis factor …). The experiment in a line: cell-based or functional assay.
In assay [5] the target is T3, human PD-L1 (programmed death ligand 1). The experiment in a line: flow cytometry (FACS) on CHO-K1/hPDL1 cells, Experiment 2.
Assay [6] shares this target. The experiment in a line: flow cytometry (FACS) on CHO-K1/hPDL1 cells, Experiment 3.
In assay [7] the target is T4, human CTLA4 on CHO-K1/hCTLA4 cells (human, UniProt P16410 36-223).
T4 construct: whole, on cells; CHO-K1 cell line highly expressing human CTLA4; also called human CTLA4 cell
Briefly: flow cytometry on CHO-K1/hCTLA4 cells, Experiment 3.

Assay [8] has as its target T4, human CTLA4 on CHO-K1/hCTLA4 cells. Briefly: flow cytometry competition: biotinylated human B7-1-Fc on CHO-K1/hCTLA4 cells, Experiment 2.
The target in assay [9] is T2, cynomolgus monkey 4-1BB. The experiment in a line: flow cytometry (FACS) on CHO-K1/cyno 4-1BB cells, Experiment 2.

Experimental findings from patent US20230322953A1 (HARBOUR BIOMED SHANGHAI, published 2023) are described below.

B1: PR003549, PD-L1×4-1BB bispecific antibody molecule of IgG-VH tetravalent symmetric structure (bispecific antibody)
light: DIQMTQSPSTLSASVGDRVTVTCRASQSIYIWLAWYQQKPGKAPNLLIYKASSLETGVPSRFSGSGSGTEFTLTISSLQPDDFATYYCQQYYGSSRTFGQGTKVEIKRTVAAPSVFIFPPSDEQLKSGTASVVCLLNNFYPREAKVQWKVDNALQSGNSQESVTEQDSKDSTYSLSSTLTLSKADYEKHKVYACEVTHQGLSSPVTKSFNRGEC
heavy: EVQLVESGGGLVQPGGSLRLSCAASGFTFSSYWMSWVRQAPGKGLEWVANIKQEGSEKYYVDSVKGRFTISRDNAKNSLYLQMNSLRAEDTAVYYCARDRAVAGAFDIWGQGTMVTVSSASTKGPSVFPLAPSSKSTSGGTAALGCLVKDYFPEPVTVSWNSGALTSGVHTFPAVLQSSGLYSLSSVVTVPSSSLGTQTYICNVNHKPSNTKVDKKVEPKSCDKTHTCPPCPAPEAAGGPSVFLFPPKPKDTLMISRTPEVTCVVVDVSHEDPEVKFNWYVDGVEVHNAKTKPREEQYNSTYRVVSVLTVLHQDWLNGKEYKCKVSNKALGAPIEKTISKAKGQPREPQVYTLPPSREEMTKNQVSLTCLVKGFYPSDIAVEWESNGQPENNYKTTPPVLDSDGSFFLYSKLTVDKSRWQQGNVFSCSVMHEALHNHYTQKSLSLSPGEPKSSDKTHTPPPPPRTEVQLLESGGGLVQLGGSLRLSCAASGFTFSRYAMTWVRQAPEKGLEWVSSISGSGDDTYYGDSVKGRFTISRDNSQNTVYLQMNSLRAEDTAVYFCAKEKAGTTGDYYYNVDVWGQGTTVTVSS
notes: Structure 5; IgG PR000265, VH of PR001758 at C-terminus of heavy chain; linker H1_15-RT; human IgG1 (L234A, L235A, P329G)
The EC50 is the concentration at which the effect is half-maximal. Turning to B1, in assay [1], the EC50 amounted to 1.9 nM and the “Maximum MFI” value was determined as 1550 MFI. In the assay with cynomolgus monkey 4-1BB [2], the EC50 was found to be 1.86 nM and the “Maximum MFI” value is 4980 MFI. Besides, in assay [3], the EC50 was 1.56 nM and the “Maximum MFI” value is 2220 MFI. For the same molecule, in assay [4], the “IFN-γ EC50 (nM), T cells with MDA-MB-231 target cells” value was 0.0695 nM and the “IL-2 EC50 (nM), T cells with MDA-MB-231 target cells” value amounted to 0.12 nM.

B2: Anti-PD-L1 91G3H5H3 (D54E), hIgG1 (N297A) (antibody)
light: B1 light
heavy: not shown
notes: hIgG1 (N297A); also called PR000265
Turning to B2, the figures for the EC50 in assay [5], in [3] and in [6] were 0.356 nM, 0.781 nM and 1.56 nM, respectively. For the same molecule, the results for the “Maximum MFI” value in assay [3] and in assay [6] were 2000 MFI and 47000 MFI, respectively.

B3: HER2xCTLA4 bispecific antibody molecule PR002672 (bispecific antibody, human IgG1)
chain 1: not shown
chain 2: not shown
chain 3: EVQLVESGGGLIQPGGSLRLSCAVSGFTVSKNYMSWVRQAPGKGLEWVSVVYSGGSKTYADSVKGRFTISRDNSKNTLYLQMNSLRAEDTAVYYCARAVPHSPSSFDIWGQGTMVTVSSGGGGSEVQLVESGGGLIQPGGSLRLSCAVSGFTVSKNYMSWVRQAPGKGLEWVSVVYSGGSKTYADSVKGRFTISRDNSKNTLYLQMNSLRAEDTAVYYCARAVPHSPSSFDIWGQGTMVTVSSEPKSSDKTHTCPPCPAPELLGGPDVFLFPPKPKDTLMISRTPEVTCVVVDVSHEDPEVKFNWYVDGVEVHNAKTKPREEQYNSTYRVVSVLTVLHQDWLNGKEYKCKVSNKALPAPEEKTISKAKGQPREPQVCTLPPSREEMTKNQVSLSCAVKGFYPSDIAVEWESNGQPENNYKTTPPVLDSDGSFFLVSKLTVDKSRWQQGNVFSCSVMHEALHNHYTQKSLSLSPGK
notes: Structure 18 Fab(cross Fd/LC)-Fc-VH-VH (trivalent asymmetric); PR000210 Fab, two PR000184 VH in tandem, linker GS_5
A word on the IC50: it is the concentration at which inhibition is half-maximal. B3 gave an EC50 in assay [7] of 2.79 nM. In assay [8], this molecule gave an IC50 of 0.983 nM.

B4: Anti-4-1BB monoclonal antibody utomilumab analog, hIgG2 (antibody, V domains shown)
VH: EVQLVQSGAEVKKPGESLRISCKGSGYSFSTYWISWVRQMPGKGLEWMGKIYPGDSYTNYSPSFQGQVTISADKSISTAYLQWSSLKASDTAMYYCARGYGIFDYWGQGTLVTVSS
VL: SYELTQPPSVSVSPGQTASITCSGDNIGDQYAHWYQQKPGQSPVLVIYQDKNRPSGIPERFSGSNSGNTATLTISGTQAMDEADYYCATYTGFGSLAVFGGGTKLTVLG
notes: tied to PR000483 by the list of control molecules; also called PR000483
As for B4, in the assay with cynomolgus monkey 4-1BB [2], it took 0.347 nM to reach a half-maximal effect (EC50) and the “Maximum MFI” value is 5390 MFI. Further, the EC50 with cynomolgus monkey 4-1BB [9] was determined as 0.337 nM.
